Test results published in article PMC5666746.

Molecular target: recombinant extra-cellular domain sequence of DR5 (sDR5) protein (human)
Assay: BLI; ForteBio Octet QKe; biotinylated sDR5 loaded on streptavidin sensors at 1 μM; scFv at two-fold serial dilutions 93.75-6000 nM in SD Buffer (PBS, pH 7.4, 0.02% Tween 20, 0.1% BSA); association 5 min, dissociation 10 min

Chain of recombinant extra-cellular domain sequence of DR5 (sDR5) protein (human) (O14763 whole entry, the tested form may be a part): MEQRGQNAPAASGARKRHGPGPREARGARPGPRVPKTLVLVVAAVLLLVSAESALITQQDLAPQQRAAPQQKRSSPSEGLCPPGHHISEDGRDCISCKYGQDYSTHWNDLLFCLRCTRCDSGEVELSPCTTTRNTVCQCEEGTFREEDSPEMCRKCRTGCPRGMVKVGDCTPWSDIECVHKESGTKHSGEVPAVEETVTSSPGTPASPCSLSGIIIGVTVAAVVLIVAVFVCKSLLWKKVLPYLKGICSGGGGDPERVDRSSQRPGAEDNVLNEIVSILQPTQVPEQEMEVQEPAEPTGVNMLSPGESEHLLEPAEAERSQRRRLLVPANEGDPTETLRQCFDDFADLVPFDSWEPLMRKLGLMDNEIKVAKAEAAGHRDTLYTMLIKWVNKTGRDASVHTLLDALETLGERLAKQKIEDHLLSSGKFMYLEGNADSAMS

Kd: 126 nM | koff: 0.00144 s⁻¹ | kon: 11500 M⁻¹ s⁻¹
B1: TR2-3, fully human agonistic anti-DR5 single chain fragment variable (scFv) antibody (scFv)
scFv: QVQLQESGPGLVKPSGTLSLTCAVSGGSISSSNWWSWVRQPPGKGLEWIGEIYHSGSTNYNPSLKSRVTISVDKSKNQFSLKLSSVTAADTAVYYCARGAAAGTANDAFDIWGQGTMVTVSSGGGGSGGGGSGGGGSETTLTQSPGILSLSPGERASLSCRASQSVPHNYLAWYQQKPGQAPRLLIYGASNRATGIPDRFSGSGSETDFTLTVTRLAPEDFAVYYCQQYGRSLTFGGGTKVEIKR
